Data taken from patent US20090170750A1 (Novo Nordisk, published 2009).
Bridges are numbered along the chain shown (N, C = ends). Where no end group is shown, it is not given here.

Target: T1, purified recombinant human insulin receptor-exon 11 (human, UniProt P06213-2 28-1370, limits assumed)
T1 construct: also called IR
Assay: competition with 125I-insulin (SPA)
Experimental: A total of 100 μl was then added and a dilution series is made from appropriate samples. To the dilution series was then added 100 μl of reagent mix and the samples were incubated for 16 hours while gently shaken. The phases were the then separated by centrifugation for 1 min and the plates counted in a Topcounter. The binding data were fitted using the nonlinear regression algorithm in the GraphPad Prism 2.01 (GraphPad Software, San Diego, Calif.).

B1: single-chain insulin PAK 1896, connecting peptide VGLSSGQ [B29A_A18Q_A22K] (ligand)
chain: FVNQHLCGSHLVEALYLVCGERGFFYTPAVGLSSGQGIVEQCCTSICSLYQLEQYCNK
modifications: disulfide 19-56, 42-47, 7-43
IR, binding relative to human insulin: 38%
